Publication PMC6929975, “A supramolecular protein chaperone for vaccine delivery” (Theranostics, 2020)

System: bone marrow-derived dendritic cells (BMDCs)
Assay: Antigen uptake by BMDCs (confocal microscopy; OVA-Rhod)
Format: cell-based
Details: 1 h, 37 °C, OVA-Rhod 2.5 µg mL^-1 (soluble) or Comp./OVA = 10:1 w/w
Experimental: Figure 5 Vaccine promoting antigen uptake by BMDCs. […] Magnification: 63 ×. (B) The percentage of OVA-Rhod-positive cells is shown. (C) Total fluorescence intensity of OVA-Rhod was measured; total fluorescence intensity (FI) = % of positive cells × mean fluorescence intensity. The bars shown represent the mean ± SE, and differences among groups were determined using one-way ANOVA. The asterisks indicate the significance of differences between the Vac-1 group and the indicated group. *: p < 0.05, **: p < 0.01.

B1: RBITC-OVA: OVA labelled with Rhodamine b isothiocyanate, soluble (protein, UniProt P01012 2-386, looked up)
Ovalbumin: GSIGAASMEFCFDVFKELKVHHANENIFYCPIAIMSALAMVYLGAKDSTRTQINKVVRFDKLPGFGDSIEAQCGTSVNVHSSLRDILNQITKPNDVYSFSLASRLYAEERYPILPEYLQCVKELYRGGLEPINFQTAADQARELINSWVESQTNGIIRNVLQPSSVDSQTAMVLVNAIVFKGLWEKAFKDEDTQAMPFRVTEQESKPVQMMYQIGLFRVASMASEKMKILELPFASGTMSMLVLLPDEVSGLEQLESIINFEKLTEWTSSNVMEERKIKVYLPRMKMEEKYNLTSVLMAMGITDVFSSSANLSGISSAESLKISQAVHAAHAEINEAGREVVGSAEAGVDAASVSEEFRADHPFLFCIKHIATNAVLFFGRCVSP
modifications: rhodamine B isothiocyanate label
notes: OVA labelled with Rhodamine b isothiocyanate, soluble
uptake of RBITC-OVA by DCs: poor uptake
